Square brackets hold non-standard residues; d marks the D form. Ends that are not written are not given here. Hyp = O=C(O)[C@@H]1C[C@@H](O)CN1
Key:
[1] = target: T1, extracellular domain of A. thaliana TDR (residues 30-642) (Arabidopsis thaliana, UniProt Q9FII5 30-642, N-glycosylated at N111, N356, N378, N471 and N525 (one GlcNAc visible on each in the structures)); assay: ITC
T1 chain: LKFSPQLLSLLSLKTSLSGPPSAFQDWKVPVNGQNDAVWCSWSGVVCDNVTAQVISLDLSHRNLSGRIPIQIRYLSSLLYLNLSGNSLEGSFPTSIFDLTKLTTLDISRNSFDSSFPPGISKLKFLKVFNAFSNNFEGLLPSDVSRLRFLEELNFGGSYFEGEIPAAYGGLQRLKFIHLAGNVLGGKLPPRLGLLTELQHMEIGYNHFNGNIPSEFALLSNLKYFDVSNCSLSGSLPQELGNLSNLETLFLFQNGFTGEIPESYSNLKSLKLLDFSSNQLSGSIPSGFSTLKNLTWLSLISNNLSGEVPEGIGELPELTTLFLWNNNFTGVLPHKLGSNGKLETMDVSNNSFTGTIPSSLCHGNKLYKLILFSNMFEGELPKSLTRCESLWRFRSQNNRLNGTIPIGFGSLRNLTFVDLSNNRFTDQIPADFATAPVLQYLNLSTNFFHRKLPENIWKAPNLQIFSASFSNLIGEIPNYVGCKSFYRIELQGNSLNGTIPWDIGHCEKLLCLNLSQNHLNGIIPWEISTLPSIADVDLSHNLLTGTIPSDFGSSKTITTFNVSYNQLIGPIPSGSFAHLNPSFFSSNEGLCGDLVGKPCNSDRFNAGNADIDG

[2] = target: T2, extracellular domain of A. thaliana TDR (residues 30-642) (Arabidopsis thaliana, UniProt Q9FII5 30-642, N-glycosylated at N111, N356, N378, N471 and N525 (one GlcNAc visible on each in the structures)); assay: crystal structure; ecdTDR 5 mg/ml (42 μM) mixed with 420 μM TDIF, 4°C for 1 hour; crystals at 18°C in 200 mM MgSO4, 20% PEG 3350; 2.75 Å; conditions: both partners purified
T2 construct: TDR/PXY (TDIF RECEPTOR / PHLOEM INTERCALATED WITH XYLEM) of A. thaliana, extracellular domain, residues 30-642; the structure models hold residues 40-625; also called ecdTDR; TDR-ECD; source: High Five insect cells (baculovirus), secreted, purified (Ni-NTA, size-exclusion chromatography)
T2 sequence (looked up): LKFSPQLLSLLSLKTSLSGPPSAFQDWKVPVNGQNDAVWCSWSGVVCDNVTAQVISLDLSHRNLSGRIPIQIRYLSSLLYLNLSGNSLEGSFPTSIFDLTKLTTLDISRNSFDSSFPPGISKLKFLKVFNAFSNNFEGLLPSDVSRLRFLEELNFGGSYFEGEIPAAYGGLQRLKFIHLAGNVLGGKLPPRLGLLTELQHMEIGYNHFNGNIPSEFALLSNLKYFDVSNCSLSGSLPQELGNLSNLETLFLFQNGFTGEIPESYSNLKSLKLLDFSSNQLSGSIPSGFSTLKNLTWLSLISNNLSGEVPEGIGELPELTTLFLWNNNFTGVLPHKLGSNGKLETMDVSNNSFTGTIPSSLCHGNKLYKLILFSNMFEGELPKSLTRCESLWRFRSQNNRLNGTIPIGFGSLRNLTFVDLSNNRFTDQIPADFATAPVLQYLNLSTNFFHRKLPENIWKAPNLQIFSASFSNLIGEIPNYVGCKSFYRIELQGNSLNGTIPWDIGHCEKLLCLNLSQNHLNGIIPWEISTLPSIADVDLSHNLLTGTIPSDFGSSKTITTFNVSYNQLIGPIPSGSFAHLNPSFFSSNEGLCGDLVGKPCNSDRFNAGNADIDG

[3] = target: T3, ecdTDR Y188A mutant (Arabidopsis thaliana, UniProt Q9FII5 30-642, Y188A); assay: ITC; 0.5–1 mM peptide titrated into 10–40 μM ecdTDR; 25°C; 10 mM sodium citrate, 100 mM NaCl, pH 5.5; fitted to one set of binding sites; MicroCal Auto-iTC200; conditions: both partners purified
T3 construct: TDR/PXY of A. thaliana, extracellular domain, residues 30-642; source: High Five insect cells (baculovirus), secreted, purified as the wild type (Ni-NTA, size-exclusion chromatography)
T3 sequence (looked up): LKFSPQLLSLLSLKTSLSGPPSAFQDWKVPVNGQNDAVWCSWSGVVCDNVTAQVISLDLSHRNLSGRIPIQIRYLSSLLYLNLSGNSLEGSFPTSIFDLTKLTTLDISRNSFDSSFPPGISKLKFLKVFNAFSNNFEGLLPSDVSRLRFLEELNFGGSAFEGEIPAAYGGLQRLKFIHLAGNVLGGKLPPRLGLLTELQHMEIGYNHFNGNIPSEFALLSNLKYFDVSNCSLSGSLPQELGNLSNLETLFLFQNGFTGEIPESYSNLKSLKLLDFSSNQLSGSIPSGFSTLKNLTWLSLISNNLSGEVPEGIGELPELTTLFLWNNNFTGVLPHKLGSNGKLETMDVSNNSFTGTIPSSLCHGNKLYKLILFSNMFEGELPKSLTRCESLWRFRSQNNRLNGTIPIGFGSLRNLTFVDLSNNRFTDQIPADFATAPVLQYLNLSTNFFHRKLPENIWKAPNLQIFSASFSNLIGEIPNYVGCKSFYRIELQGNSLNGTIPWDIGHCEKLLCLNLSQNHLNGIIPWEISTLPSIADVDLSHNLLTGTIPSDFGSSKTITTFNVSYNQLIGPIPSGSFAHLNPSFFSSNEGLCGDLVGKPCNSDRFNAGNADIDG

[4] = target: T4, ecdTDR Y234 alanine mutant (Arabidopsis thaliana, UniProt Q9FII5 30-642, alanine substitution of Y234); assay: as above; conditions: both partners purified
T4 construct: TDR/PXY of A. thaliana, extracellular domain, residues 30-642; The text says only 'mutational analyses' of Y234; source: High Five insect cells (baculovirus), secreted, purified as the wild type (Ni-NTA, size-exclusion chromatography)
T4 sequence (looked up): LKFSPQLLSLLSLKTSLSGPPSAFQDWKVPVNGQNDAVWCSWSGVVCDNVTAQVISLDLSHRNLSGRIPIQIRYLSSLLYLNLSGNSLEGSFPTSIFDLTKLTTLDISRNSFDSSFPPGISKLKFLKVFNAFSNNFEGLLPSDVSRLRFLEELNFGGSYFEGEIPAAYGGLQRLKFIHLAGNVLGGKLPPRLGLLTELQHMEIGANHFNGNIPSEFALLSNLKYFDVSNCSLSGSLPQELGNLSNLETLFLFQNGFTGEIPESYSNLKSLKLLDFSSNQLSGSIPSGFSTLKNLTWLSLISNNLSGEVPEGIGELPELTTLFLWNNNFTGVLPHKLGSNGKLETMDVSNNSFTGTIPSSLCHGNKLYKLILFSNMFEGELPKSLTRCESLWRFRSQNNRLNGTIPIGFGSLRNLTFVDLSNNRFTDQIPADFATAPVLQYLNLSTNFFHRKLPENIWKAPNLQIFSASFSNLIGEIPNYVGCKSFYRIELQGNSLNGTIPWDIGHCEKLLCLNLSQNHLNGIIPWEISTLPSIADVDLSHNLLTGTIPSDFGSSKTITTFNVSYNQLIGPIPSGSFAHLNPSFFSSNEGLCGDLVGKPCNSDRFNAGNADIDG

B1: Tracheary Element Differentiation Inhibitory Factor (TDIF) peptide (peptide)
peptide: HEV[Hyp]SG[Hyp]NPISN
notes: TDIF, the 12-residue CLE peptide processed from CLE41 and CLE44 of A. thaliana; printed as HEV(Hyp)SG(Hyp)NPISN; numbers count on: the 12-residue peptide; CLE44 encodes the same peptide; also called wild type TDIF; wtTDIF; source: synthetic peptide (peptide 2.0)
In the case of B1, the Kd [1] is reported as 103 nM, the binding result [2] is reported as “binds” and the binding result [3] is reported as “binds”. B1: binds [4].

From article PMC5383425, “Differential CLE peptide perception by plant receptors implicated from structural and functional analyses of TDIF-TDR interactions” (PLoS ONE, 2017)
